Experimental data as given in US20240252628A1.

Target: GDF8, O14793
Experiment: SPR (Biacore), anti-Fc capture of receptor; very low signal
Settings: remark: other sources report otherwise

GDF8, O14793, sequence (O14793 267-375 limits assumed): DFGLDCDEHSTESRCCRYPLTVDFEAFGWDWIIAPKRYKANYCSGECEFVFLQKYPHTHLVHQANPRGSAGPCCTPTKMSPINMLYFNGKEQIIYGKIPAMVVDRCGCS

Kd: 15 nM
koff: 0.0019 s⁻¹
kon: 130000 M⁻¹ s⁻¹
B1: ALK4-Fc homodimer, P36896 24-126 (Fc fusion, not shown: a dimerising Fc or GST)
chain: SGPRGVQALLCACTSCLQANYTCETDGACMVSIFNLDGMEHHVRTCIPKVELVPAGKPFYCLSSEDLRNTHCCYTDYCNRIDLRVPSGHLKEPEHPSMWGPVE
